The values that follow are results of earlier work, collected in paper PMC5413910.

The target in this data set is linear (Met1-linked) diubiquitin (Homo sapiens) (UniProt P0CG48).

Chain of OTULIN (Q96BN8 whole entry): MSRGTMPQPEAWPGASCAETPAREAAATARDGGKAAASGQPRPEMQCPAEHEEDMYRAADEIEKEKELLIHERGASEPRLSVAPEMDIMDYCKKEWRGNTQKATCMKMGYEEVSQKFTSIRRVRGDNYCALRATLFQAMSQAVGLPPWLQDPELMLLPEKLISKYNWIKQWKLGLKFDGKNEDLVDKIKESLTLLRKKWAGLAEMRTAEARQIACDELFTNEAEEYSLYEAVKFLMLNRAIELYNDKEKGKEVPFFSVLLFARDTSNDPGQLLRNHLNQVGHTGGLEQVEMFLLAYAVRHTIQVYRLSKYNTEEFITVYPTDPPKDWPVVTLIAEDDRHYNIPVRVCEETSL

A word on the Kd: it is the equilibrium constant for the complex coming apart. For OTULIN (from UniProt Q96BN8), the Kd is 150 nM.
